Molecular target: T1, GST-Rif2_(1-60) (S. cerevisiae, UniProt Q06208 1-60)
T1 construct: Rif2, S. cerevisiae, residues 1-60; also called GST-ScRif2_(1-60); Rif2 BAT; source: E. coli BL21 (DE3), purified (GSH Sepharose, Hitrap Heparine)
T1 sequence (looked up): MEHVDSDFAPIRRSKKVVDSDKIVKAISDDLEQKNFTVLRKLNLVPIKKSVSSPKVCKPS
Assay: pull-down; GST-Rif2_(1-60), its F8A mutant or GST (10 µg) immobilised on Glutathione Sepharose 4B; Rad50∆CC (30 µg) added in 100 µL 50 mM Tris HCl pH 8, 150 mM NaCl, 1 mM DTT, 0.5 mM EDTA, 10% glycerol, 2 mM MgCl2, benzonase; 120 min at 4 °C; glutathione elution, SDS-PAGE, silver staining
Details: both partners purified

- binding result: binds
B1: Rad50∆CC, purified (His-SUMO tag removed) (domain or fragment, S. cerevisiae)
chain: MSAIYKLSIQGIRSFDSNDRETIEFGKPLTLIVGMNGSGKTTIIECLKYATTGDLPPNSKGGVFIHDPKITGEKDIRAQVKLAFTSANGLNMIVTRNIQLLMKKTTTTFKTLEGQLVAINNSGDRSTLSTRSLELDAQVPLYLGVPKAILEYVIFCHQEDSLWPLSEPSNLKKKFDEIFQAMKFTKALDKILCYDDIDVYSKALDSAIMKYHGLKMQDINRIIDELWKRTYSGTDIDTIKIRSDEVSSTVKGKSYNYRVVMYKQDVELDMRGRCSAGQKVLASIIIRLALSETFGANCGVIALDEPTTNLDEENIESLAKSLHNIINMRRHQKNFQLIVITHDEKFLGHMNAAAFTDHFFKVKRDDRQKSQIEWVDINRVTY
notes: Rad50, S. cerevisiae, N-terminal Head domain, residues 1-189; residues joining the two Head domains in the Rad50∆CC allele; Rad50, S. cerevisiae, C-terminal Head domain, residues 1125-1312; also called Rad50 ATPase Head; Rad50 Head domains; source: E. coli BL21 (DE3), purified (NiNTA, PD10; tag cleaved with His-SUMO-Protease); not shown: His6-SUMO, N-terminal, cleaved

From PMC8115599, “Mechanism of MRX inhibition by Rif2 at telomeres” (Nature Communications, 2021)
